The experiment deals with ORAI1 (Homo sapiens, UniProt Q96D31). The experiment can be described thus: Cameleon D3 cpV/D4 cpV intravesicular Ca^2+ assay, sec6-4 vesicles with ORAI1. The format is biochemical. Also noted: the ORAI functional fragment is ORAI1 (65-301), ORAI1 (65-87), or full length ORAI1; made in house; host or cells: S. cerevisiae NY17 (sec6-4), isolated secretory vesicles, vector pBEVY-GU. On the procedure:
In complementary measurements, vesicular Ca^2+ was monitored directly by coexpressing ORAI1 with the Ca^2+ sensor D3 cpV or D4 cpV53 fused to the α-mating factor secretion signal to target the sensor to the vesicles. Vesicles that had incorporated ORAI1 were isolated from sec6-4 yeast incubated at the restrictive temperature and were diluted into assay buffer.
Vesicles carrying ORAI 1 were isolated from S cerevisiae strain NY1 7 according to a standard protocol (Coury, L. A., et al., Methods Enzymol 306, 169-186 (1999); Nakamoto, R. K., et al., J Biol Chem 266, 7940-7949 (1991)). Efflux of Ca^2+ elicited by STIM1^CT fragments was detected by suspending the vesicles in a buffer containing Fura-2 as principal Ca^2+ buffer, and monitoring the Fura-2 fluorescence excitation spectrum (Meyer, T., et al., Biochemistry 29, 32-37 (1990)). As a complementary approach, ORAI 1 was coexpressed with a Ca^2+ sensor cameleon D3 cpV or cameleon D4 cpV53 that was targeted to the vesicles, and changes in intravesicular [Ca^2+] were detected as changes in FRET between CFP and YFP of the sensor.
The yeast expression vector pBEVY-GU60 allows for simultaneous expression of two transgenes by means of the bidirectional GAL1-10 promoter. The FRET-based calcium sensors D3 cpV and D4 cpV53 were fused at the N-terminus with the S. cerevisiae α-mating factor secretion signal (Bitter, G. A., et al., Proc Natl Acad Sci USA 81, 5330-5334 (1984)), which directs proteins into the secretory pathway, and introduced into pBEVY-GU in the following way. Vector pPIC9 (Invitrogen) served as template for PCR amplification of the α-mating factor secretion signal (5′ primer: […] (SEQ ID NO: 2); 3′ primer: […] (SEQ ID NO: 3)), introducing an EcoRI site at the 5′ end, and a sequence complementary to that encoding the N-terminus of the calcium sensor at the 3′ end. DNA encoding the N-terminal portion of the calcium sensor D3 cpV, comprising CFP, was amplified by PCR (5′ primer: […] (SEQ ID NO: 4); 3′ primer: […] (SEQ ID NO: 5)), introducing an SphI site followed by a stop codon and a NotI site at the 3′ end of the resulting DNA fragment. PCR-mediated fusion of the fragments representing the α-mating factor secretion signal and the sensor CFP fragment yielded αCFP, which was digested with EcoRI and NotI and subcloned into pSM703. […] Human ORAI1 was Myc-tagged at the N-terminus by PCR (5′ primer: […] (SEQ ID NO: 6); 3′ primer: […] TGGCTGCCGGGC (SEQ ID NO: 7)) and subcloned as an EcoRI-BamHI fragment into pSM703. A fragment containing Myc-ORAI1 was excised from the resulting plasmid by EcoRI digestion, blunt-ended with the Klenow fragment of DNA polymerase I, and cut with AvrII. […]

[1] abbreviates: STIM 1 cytoplasmic fragments 2 μM.

ORAI1, sequence (Q96D31 2-301): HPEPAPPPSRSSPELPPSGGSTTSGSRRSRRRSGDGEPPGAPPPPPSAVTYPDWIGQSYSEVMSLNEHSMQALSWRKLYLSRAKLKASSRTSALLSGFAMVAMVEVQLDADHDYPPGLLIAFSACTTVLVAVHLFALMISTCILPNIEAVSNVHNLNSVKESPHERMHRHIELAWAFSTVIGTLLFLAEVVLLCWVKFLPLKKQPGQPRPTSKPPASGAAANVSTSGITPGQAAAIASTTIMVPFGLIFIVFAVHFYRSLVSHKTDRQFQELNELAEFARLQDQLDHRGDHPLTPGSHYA

In the case of `C[C@H](CCC(=O)O)C[C@H](C)C[C@H](C)C(=O)/C=C(\O)[C@H](C)C[C@H](C)C/C=C/[C@@H](C)[C@@H](O)[C@@H](C)[C@@H](O)C[C@@H]1CC[C@@](C)([C@H]2CC[C@@](C)([C@@H](C)O)O2)O1` [ionomycin, reference compound], the “vesicular Ca^2+ (cameleon FRET signal)” value (ionomycin 20 μM) is given as “depletion of vesicular Ca^2+”.

“STIM1 (233-498): truncated mouse STIM1 cytoplasmic fragment, residues 233-498, His-tagged recombinant protein”: the “vesicular Ca^2+ (cameleon FRET signal)” value under setting [1] was “triggered substantial loss of vesicular Ca^2+”.

“STIM1^CT: cytoplasmic region of STIM1, mouse residues 233-685, His-tagged recombinant protein expressed in E coli”: the “fluorescence intensity ratio F528 nm/F475 nm” value (D3 cpV sensor, wildtype ORAI1, STIM^CT 2.6 μM, p<0.001) is reported as “changes the ratio significantly”. Also, the “vesicular Ca^2+ (cameleon FRET signal)” value under setting [1] is listed as “triggered substantial loss of vesicular Ca^2+”.

These data come from patent publication US20120264231A1, “ASSAY FOR ORAI CALCIUM CHANNEL REGULATORS” (IMMUNE DISEASE INSTITUTE, INC., priority 2009, published 2012).
